Laboratory results reported in PMC3570467.

biological target: a representative mIgG1 mAb (used for the KD determinations; not told which) (mouse); test: SPR; BIAcore 2000; mIgG1 mAb immobilised on CM-5; Z variants serially diluted 250 nM to 64 µM; KD for 1:1 interaction from equilibrium response values

Kd [µM] | Substance
10 | ZF5I, Z domain variant with Phe to Ile substitution at position 5 (designed binder)
10 | ZF5R, Z domain variant with F5R substitution (designed binder)

Substance | Kd [µM]
wild type Z domain (ZWT), staphylococcal protein A-derived 58-residue three-helix bundle domain (designed binder) | > 100
